Data published in US20180346554A1 (University of Pennsylvania, published 2018).

Assays:
Assay in all cases: cell-based or functional assay
[1] = target: Env of the HIV-1 pseudotyped virus Q23Env17 (clade A, Tier 1) (HIV-1 (clade A, Q23Env17))
[2] = target: Env of the HIV-1 pseudotyped virus Bal26 (clade B, Tier 1) (HIV-1 (clade B, Bal26))
[3] = target: Env of the HIV-1 pseudotyped virus SF162S (clade B, Tier 1) (HIV-1 (clade B, SF162S))

B1: HIV-1 Env-Fab (Fab generated from the VRC01 antibody by pHIV-1 Env Fab) (Fab, V domains shown)
VH: QVQLVQSGGQMKKPGESMRISCRASGYEFIDCTLNWIRLAPGKRPEWMGWLKPRGGAVNYARPLQGRVTMTRDVYSDTAFLELRSLTVDDTAVYFCTRGKNCDYNWDFEHWGRGTPVIVSS
VL: QIVLTQSPGTLSLSPGETAIISCRTSQYGSLAWYQQRPGQAPRLVIYSGSTRAAGIPDRFSGSRWGPDYNLTISNLESGDFGVYYCQQYEFFGQGTKVQVDI
How did the “plateau percent neutralization (TZM-Bl luciferase assay, serum 1:50)” value (shortened to “plateau percent neutralization”) [1] turn out when B1 was run?
Its value is ~60%.

What about the “plateau percent neutralization” value [2] of the same binder?
Its value is ~62%.

What about the “plateau percent neutralization” value [3] of the same binder?
The value was ~70%.
